Assay results from the DeepSol protein solubility set.

Assay: soluble on expression in E. coli; label from the status in PepcDB or PDB records
For “MNTINRNVYPVSGLSTQSVNPDSDGIQPPDVKSGHNSQLIDFSSPQQVNGLQSSLSLSGSRPQVPATRAASDASENPVELLLNKLVEAIRNILKDLLSLFKGDQQQDQAPPPAQTQREQAPSFSQLSQTPSSASPSSPSPSAAPAPAPTPTPTEKPFVVQNDHPADKPVTVQKNTAPTPPDPVQTQDKTSVTAPPKPVAATPAAHPRATTPVTEKPDTEEKVAKPAPRAAHGQGADMSGMIGFAKEANTTGGNNGEVVTVNTVADLKKYMEDDTARTVKLGANLSADSKVSINFGANKTLLGTDKGNSLHNIYLASGKTASNDIFQNLNFTHDSRYRENGDMQMFISSGQKYWIDHITATGTKDQNPKGLDKLLYVGGKADNVSLTNSRFQNNEYGVILGQPDDSADAKAEYKGYPRMTIANNVFSDLDVRAPGLMRHGQFDVFNNSINDFHLGFTATGDATILSQANYFAKGVDVSNKASNSGVLDDYGDAHFKDIGSNVSFTQKSPVTAWTPSYNRDIKTAEAARAYDLANAGAEAVR”, the “soluble on expression in E. coli” value was “not soluble”. In the case of “MERETPKTPTPTPYTNIYAALNNKKTNDEVASKVTEELNKLKIAEEKDNKIVSREKPEMMSLNTLVEMCSAGEKPTKGKSEKDIRKKKAPVLVDDNQSYVMIGPPSEPVEPPATLSTETSKTNAIEESTVKRSEALSAYIGVATLNDAENHLTRRGEFALYHLFNPNGRLDTITEKLPLMIVYRTTTKKNRHYSIRTTCDQQFFVDCGYPNVRKHYSLNHLVKFYKVRILLPDTIQKQQLTDILQILKQFQTSATCEINPYDTSADSFSWWLE”, the “soluble on expression in E. coli” value is reported as “soluble”. In the case of “MTDAGSSFCPECGDPVDSVGGDGATRREQSLCDSCYFAAFDLVDAPDTIEVMVCARCGAVHRGNRWVDIGADDYVDVAVAETTEALGVHLEAEDVDWEVRPEKLDDNTVRMHATFTGVVRDTHRTEQVAVTVKVSRQTCQRCGRIAGESYASTVQVRAVGRDPTSEETDRAAELAHRIVADMEATGDREAFVTEIGDAESGTDIKLSTTKIGLKLARKLVEEFGGDFEDHETLITEDDDGNEVYRVTYAVRLPEFVPGDVVDIAADDGGPVLVQSNHGNLKGVRVTTGEPYEASFEDGDSPDARKLGAVADATEATVVTVEDDAAIQILDPDTYEAQTVARPDYVDPDASTVPALKSRAGLHVLPDALEHHHHHH”, the “soluble on expression in E. coli” value is reported as “soluble”. For “GPGSMSLWGGFSNPTSYSDSGLEKRLEFDFAAAVDVQTFAVEELEDVLAAAGQKLQHHFSAEGLLSLEMTQCIIILTPCKLVVTSASEVMLHQVITPTIALLTSKGVRVEWASYLRKNTTSPWCAESEMSDIMAQEYAELKAAFPAGKSFLTGPVDGHHCFNFVYDNVERIAGRKEEDVQVNVFLNDVAAGLEEVNKTTQRFHALQSGEYEVMRTFAGVPCISFETNAKAAVASPTRVQKLLDTFQPTHFTVAALQDRDADESALRCNFNAFTPYTLQNRTVNLFGEGYAFHQLLFARSAD”, the “soluble on expression in E. coli” value was “soluble”. In the case of “MGSDKIHHHHHHMQDLLSQDEIDALLHGVDDGDIDTYEETDDTGVKNYDLASQDRIVRGRMPTLEMINERFARYTRISLFNLLRRNADVSTGGVQIMKFGEYIHTLYVPTSLNLCKVRPLRGTSLFVLDAKLVFKLVDNFFGGEGRHAKIEGREFTPTETRIVQMVLNQVFHDMKEAWHAVLQVEFEYLSSEVNPAMANIVSPSEVVVVSTFHIELDGGGGELHFALPYSMIEPIRDVLDAGVQSDIDDVDERWVNALQEDIKEVNVPINTTVCRRRISLRDIARMKAGDVIPVEIPEHLTVTANGIPIYKATLGTRDGKLALRIHDRAKLPKVKKQLKVGRNG”, the “soluble on expression in E. coli” value is reported as “not soluble”. For “MRKISYRFVYNRKKSLNDRGTALVQVEAYLNKKKVYFSTHVYLRPEQWDVKRKIIKDHPNQDALNGMLNEFIIELEKKELSLWRQGKTITLSLIKEEFKSNTDASFLGFARKEIMSSQLKDSTKRNHLTTISLLQSFKPTIEFEDLTYNFVTDFEKNLYESGYQTNTVAKHMKHLKSFVNAAINKGYIDPNNYAFRRYKIKMKEGKHVFLLPEEMKKLEEVSLTGRNSCLEHTLDAFLFCCYTGLRYSDFVNLNEKNIVKMDGKLWLIFDSVKTGTEVKLPLNLLFEGKALTLLQKYQGKWSSFFSIK”, the “soluble on expression in E. coli” value was “not soluble”. With “MSLLVMKCSKCSAEAIYYAKYNGLYLCRDHFNEMIEGRVKKEIRKQVEFHGDDVTISVALSGGKDSSVTLFLLHKILGNRKNMKIKAFTVDEGIDGYRPSGLESAKRLCTSLGIDHETISFYDSYGLTLDSIVKTNPVKIPCAYCGPLRRKLINEMADKQDADYVALGLNLDDYSQSILMNVAKGDFDRFIRMSPQTDRKVGLVRRIAPLRTILEKEVVLYAVTNDIPFDSSWCPYYSRAQRNVFREVVNKLSEENPSTKFAILKFFDRVRENITTGHEEVKLKRCKICGAPTERDVCTACSSLQEVNEMMAEHEGHHHHHH” the “soluble on expression in E. coli” value was “soluble”. For “MSKRLPPLNALRVFDAAARHLSFTRAAEELFVTQAAVSHQIKSLEDFLGLKLFRRRNRSLLLTEEGQSYFLDIKEIFSQLTEATRKLQARSAKGALTVSLLPSFAIHWLVPRLSSFNSAYPGIDVRIQAVDRQEDKLADDVDVAIFYGRGNWPGLRVEKLYAEYLLPVCSPLLLTGEKPLKTPEDLAKHTLLHDASRRDWQTYTRQLGLNHINVQQGPIFSHSAMVLQAAIHGQGVALANNVMAQSEIEAGRLVCPFNDVLVSKNAFYLVCHDSQAELGKIAAFRQWILAKAAAEQEKFRFRYEQ”, the “soluble on expression in E. coli” value was “soluble”. With “MLNETIQKEFQRKEIKYLIEADTFEQLQKEFKDYLTPDRFTHSSITNIYFDNPDFQLIKDSINHRHASEKIRMRTYDPKPTQKSQAFLEIKKKEYQGEQEIGYKYRLTSTPLSLCNYVQQGIIDNNIKQDDRANHELAILRERYKKLVPKMFIHYERFSLRGIENPKLRVTFDRNVIYRHENVNLTSGFNGYPLLKNNQIVMEIKVKNGLPAWMEKIFHKHQLIPQSFSKYTTAYLKAYGLTPEDIREEPTSIALEHHHHHH” the “soluble on expression in E. coli” value was “soluble”. With “MNKILIIISCILIMLTAFSCRRNVFNPNIPPRTEFIEDPIANLSIPSKDATIKVTPVEASINGYDSKSGQYGKMVYGHFEHYFEFKGHYYLTAAYQYIYGYTNEVIMIGNTTLMNYPNGHILEIDVNDGFKMKEVKANLGRTVPEYTRIAKIANGNAYQDDTYIYVQDSAGANYFKTSDFKSWTDTLSTTPPAGTTKREAVTMNRVQITANNGITYTYVYTGGGLQFSIERLDNRMKQLAQRLETKFTFKEEDFNNHHMFDIGINISTGTTADYRINPVEYIENDTNYIWIGKQSPHQIWLMPVKKDGKDYLIRFVEHCAGGGYYTIKMLETNINTYKKEAETALSKALAAVASDKPQAEIEQACYESIKADANYKANQYFYDVATKMGGLQGFWVGSPAVTEAGFISPNKPLTHYVIEFIDIQQ” the “soluble on expression in E. coli” value was “not soluble”. With “MGHHHHHHSHMQTFQLDTERLCQAAKLYQHTKSDFGLNGMIQLSGSCNNMSLSVLGSIGGCAILRLELLEAARLHSSKDSSKSAIYSFRNASSLGREFTHGGELFGPKMESASLSFYGHHGVKYVEAQFVHDSSSKTVHTAAMQPITIPPSCAFDDREANGIVTLSTKTAAALVKWLKQHTKTCQSPVKVSISEILGVMVLSVGDASMTVDVTPVNVSSGKKTRGGNKASDSGTISADATVHVNGHCLIRSLIVCKVPGCTTPRVKFHACGILEVDGAPVKQGELTQVKLSVALLNVDSSTGRVLKEPVVTGASKDRGASKSEDADGSPPVPDHPKESLTSDSDSSVPGPRSTDLSSLTHTPSDRFSSDLRSGCGGQQFLKRPPPKKDREPTTKRPKLHFNHFP” the “soluble on expression in E. coli” value was “soluble”. In the case of “AVANATELVNKISENCFEKCLTSPYATRNDACIDQCLAKYMRSWNVISKAYISRIQNASASGEI”, the “soluble on expression in E. coli” value is reported as “soluble”. With “DKDVLEVKLDKKEYKAGETATALIQSPYADAELYFAVIKDKPIYQQITKVQGSAPQIQFRVTPEMLPNAAVEAVLVRQGKPINQVEVGSLDNLVKIGFTPFKVNLEDKYLKLQVKPAQASLEPGAEETIQLEVKDNQGNPTKGQLTVMVVNEAVLQLSGY” the “soluble on expression in E. coli” value was “not soluble”. In the case of “ITLAVKVGMIQLCGCSGCHISLLDLHDKLLEVLPNLEIVYAPIIADPKEIPEGIDVFLVEGGIRNEHDEHLIHEIREKSKIVIAWGTCAAYGGIPGLGNLYKKEELLNYVYSTDSTENKGEIPSEEIPPLEEYVKPIKDFIKVDYTIPGCPPTPKMIADAIIALLNGEEPKLPTKIVC”, the “soluble on expression in E. coli” value is reported as “not soluble”. For “GPLGSMADSQDPLHERTRRLLSDYIFFCAREPDTPEPPPTSVEAALLRSVTRQIQQEHQEFFSSFCESRGNRLELVKQMADKLLSKDQDFSWSQLVMLLAFAGTLMNQGPYMAVKQKRDLGNRVIVTRDCCLIVNFLYNLLMGRRHRARLEALGGWDGFCRFFKNPLPLG”, the “soluble on expression in E. coli” value was “soluble”. With “MGSDKIHHHHHHMQGSAMLVHPQYDSNCPKTSVEVSEGFGGWFARICEDDQETFHQFRRERDAIAFADTQRMRLGLPCPPLERTASSGHKAIRKINQIADVLRTRGLGRFLQLSTLSLSEPIRSQRLRYRVASDARQALSKIKAASRHRGLFIDCGSNIGQAYKFFSRYYTPDYYDYVLVEPNKNCLEHLHSLRSENVAIEVVAKAASVKDGYAEFLGPPGRSDLTYEGCSIVPSHNGGLYPSQRFTPELVETFSLSQMIQAKRGLYEVIVLKLDVEGAEYEILDDLIRSGLHRDLHATYVEFHSLYMRNSEGRKTAVVERKIVDEFQQAGTHISRWI” the “soluble on expression in E. coli” value was “not soluble”. For “MASIAYGNNNYVIVKRDGKILTSSDGHEWKEKYFLQGGSFTSVTYNGNMFVAAGAYTVALPYGGPLTYGKCVIMTSPDGNNWQLQDAGYNADLKGITWSGKKFAVAGTNIILSSENGITWNAVEVNAILHDIAFGNGIFAAVGYDGVIMSSVDGEHWETKVEALRYDLTNIVWYDNKFIAIGSGSTPSIVVSGDGKTRVARGPKDASYKCDSSLHNVEWRKTGCSRLRQYYSDRRAKGYS”, the “soluble on expression in E. coli” value was “soluble”. For “MGSDKIHHHHHHMEFFSTRNKILSINPNGLRSTSIQLRERIWNVFYKEEYDYYDTLEYTSYTTGIEDMMLEMGIKYEFPANKIYKNQNAEKLHKHVVQCEGMWYRIYDFIEKYLRVTDSEKTQRLTIEFNRILEEEVAPYRILNGLVVPIIGKSELNSIGETIDLEYESVSKHMTKALELYSDRKKPDYENSVKESISSVESMCSIITGLSGGAATLGNTLKKLKENGVNIHPALENAFKQLYGYTSDSGGIRHGSIEFVNVASEDAKYMLVSCSAFVNYLTEKWIKYNLK”, the “soluble on expression in E. coli” value was “not soluble”. With “MKSSLSLLLLTSALSNFALATEIKSGGETSTTKEGANAFSMPAANLPMAKRLDFSVGNSFFRNPWVPAPASTDARDGLGPLFNTNGCQNCHIKDGRGHPPEPNDTQAVSMLVRLSIPAVTEQQKAIYAVNGVVPEPTYGGQLQDFSLPDQKPEGRIHITYDEVVVTFADGTPVALRKPNLKILDLAYGEMHPDVQMSARVAPPMIGLGLLEAIPDATLLQWADPEDRDGDGISGRVNQVRDVRTGEMAIGRFGWKAGQPNIMQQNAAAFNGDLGLTSHLFPQENCTEKQTLCRDLPNGGSPEVSDNILDFVEFYAQHLAVPVRRNVQDPQVQLGEKLFAQAGCQSCHKTNVLTQELAERPALSKQRIQPYTDLLLHDMGEGLSDGRPEALASAREWRTAPLWGIGYTQEVNGHTYFLHDGRARNVLEAVLWHGGEAQASRDKVLQFDKAQREALVAFLNSL” the “soluble on expression in E. coli” value was “not soluble”. In the case of “MGSDKIHHHHHHMNDVQQAINSDDIPLTDELVVSYLQDNPEFFNRNNSLMTGLRLNDEQRGTVSLVERQQQQLRQKVYGLEDEITQLMSVANHNEQLFVLYSDLYLRLLDCQSAEELLDCLHQATTELLSLSSFKLWLVSGNNTEVAHHSLSTNDCAGVMQNRLTNDEYYFGRLQESEQTLIFSKPCLGSVVLIKLTHDEQAVGFLAIGSEDAHHFDPRMDTLLLNQFKRLVAKLLHQQLSM”, the “soluble on expression in E. coli” value is reported as “not soluble”.
